Test results from patent US20030087319A1 (published 2003).

T1: recombinant active caspase-3 (PharMingen) (UniProt P42574 29-277, limits assumed)
T1 sequence (looked up): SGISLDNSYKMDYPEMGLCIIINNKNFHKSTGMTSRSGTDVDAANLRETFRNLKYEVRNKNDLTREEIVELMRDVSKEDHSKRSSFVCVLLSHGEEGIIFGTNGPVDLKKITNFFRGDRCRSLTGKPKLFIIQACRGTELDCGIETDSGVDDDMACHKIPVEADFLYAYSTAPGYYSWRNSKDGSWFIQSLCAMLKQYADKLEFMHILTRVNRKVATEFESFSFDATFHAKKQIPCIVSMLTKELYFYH


What was measured:
[1] = biological target: DEVD-cleaving caspases (caspase-3, -6, -7, -8, and -10); experiment: cell-based or functional assay
[2] = biological target: T1, recombinant active caspase-3 …; experiment: in vitro binding, 35S-labeled protein with recombinant active caspase, immunoprecipitation with caspase-specific antibodies, autoradiography
Procedure: Binding between livin and caspases was tested by incubating ³⁵[S]-methionine-labeled livin with recombinant active caspase-3 and -7, immunoprecipitating with caspase specific antibodies, resolving on SDS-PAGE and visualising by autoradiography. Both caspase-3 and -7 interacted with livin, but not with the deletion mutant DC89 used as a negative control. Survivin, which was previously shown to interact with these caspases using whole cell lysates (Tamm et al., ibid), also bound to both caspases in this in vitro assay.
In vitro binding reactions were performed by combining recombinant active caspase-3 or -7 (PharMingen, San Diego, Calif.) with ³⁵[S]-methionine-labeled survivin or livin (wild-type and the three deletion mutants described herein), prepared using the TNT T7 reticulocyte lysate system (Promega Corp., Madison, Wis.). Samples were incubated with polyclonal antibodies against either caspase-3 or -7 (PharMingen, San Diego, Calif.) in 0.5 ml NETN buffer [20 mM Tris (pH 8.0), 100 mM NaCl, 1 mM EDTA, and 0.2% NP-40] for 1.5 hrs at 4° C. followed by protein G sepharose (Amersham Pharmacia Biotech, Piscataway N.J.) for 30 min. All samples were then washed three times in NETN buffer, boiled in Laemmli buffer, and resolved by 4-20% SDS-PAGE. […]

| decrease in caspase activity (DEVD-AFC cleavage) in HeLa cells treated with TNF-a and cycloheximide [1] [%] | binding result [2] | Binder |
| --- | --- | --- |
| 15 to 20 |  | livin expressed from pcDNA3.1/V5/His-TOPO-livin in transfected HeLa cells, Q96CA5 1-298 (protein, not shown: small tags and cut ends) MGPKDSAKCLHRGPQPSHWAAGDGPTQERCGPRSLGSPVLGLDTCRAWDHVDGQILGQLRPLTEEEEEEGAGATLSRGPAFPGMGSEELRLASFYDWPLTAEVPPELLAAAGFFHTGHQDKVRCFFCYGGLQSWKRGDDPWTEHAKWFPSCQFLLRSKGRDFVHSVQETHSQLLGSWDPWEEPEDAAPVAPSVPASGYPELPTPRREVQSESAQEPGARDVEAQLRRLQEERTCKVCLDRAVSIVFVPCGHLVCAECAPGLQLCPICRAPVRSRVRTFLS |
|  | no binding | livin deletion mutant DC89 (other, 35[S]-methionine-labeled, also called DC86; NH2-terminal fragment (amino acids 1-86); not shown: myc-His tag from the vector pcDNA3.1/myc-His) MGPKDSAKCLHRGPQPSHWAAGDGPTQERCGPRSLGSPVLGLDTCRAWDHVDGQILGQLRPLTEEEEEEGAGATLSRGPAFPGMGS |
